The assay concerns the target T1, TSEN2 Y369A/H377A/K416A (endonuclease triple mutant in pCDNA3.1-TSEN2-Flag) (human, UniProt Q8NCE0 1-465, Y369A | H377A | K416A).
T1 sequence: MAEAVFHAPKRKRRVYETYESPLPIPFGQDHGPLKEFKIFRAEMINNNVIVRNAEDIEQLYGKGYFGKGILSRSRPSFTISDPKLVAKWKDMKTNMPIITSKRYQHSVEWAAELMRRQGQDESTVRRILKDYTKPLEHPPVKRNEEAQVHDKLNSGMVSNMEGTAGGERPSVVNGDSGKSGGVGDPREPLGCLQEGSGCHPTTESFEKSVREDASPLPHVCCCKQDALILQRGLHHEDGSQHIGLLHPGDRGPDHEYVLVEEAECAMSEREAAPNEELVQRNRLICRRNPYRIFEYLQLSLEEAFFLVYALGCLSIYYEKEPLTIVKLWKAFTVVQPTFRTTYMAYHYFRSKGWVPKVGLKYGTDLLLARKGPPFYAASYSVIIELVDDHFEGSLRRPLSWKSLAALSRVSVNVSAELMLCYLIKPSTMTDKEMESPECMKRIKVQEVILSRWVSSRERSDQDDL
The assay is described as follows: cryo-EM structure.

B1: TSEN15-Flag (pCDNA3.1-TSEN15-Flag) (natural protein, human)
chain: MEERGDSEPTPGCSGLGPGGVRGFGDGGGAPSWAPEDAWMGTHPKYLEMMELDIGDATQVYVAFLVYLDLMESKSWHEVNCVGLPELQLICLVGTEIEGEGLQTVVPTPITASLSHNRIREILKASRKLQGDPDLPMSFTLAIVESDSTIVYYKLTDGFMLPDPQNISLRR
Regarding B1, the binding result was “binds”.

The record behind these values is publication PMC10627149 (Nature structural & molecular biology, 2023).
